Results from patent US20240124519A1.

Molecular target: non-covalent complex of the soluble extracellular domain of human neonatal Fc receptor (FcRn) with C-terminal His-Avi Tag and human beta-2-microglobulin, biotinylated (human) (UniProt P55899)
Assay: FcRn affinity chromatography, Fc part after IdeS cleavage and preparative SEC

Chain of non-covalent complex of the soluble extracellular domain of human neonatal Fc receptor (FcRn) with C-terminal His-Avi Tag and human beta-2-microglobulin, biotinylated (human) (P55899 other isoform, or with tags, fused parts or gaps limits assumed, chain 1 of 2): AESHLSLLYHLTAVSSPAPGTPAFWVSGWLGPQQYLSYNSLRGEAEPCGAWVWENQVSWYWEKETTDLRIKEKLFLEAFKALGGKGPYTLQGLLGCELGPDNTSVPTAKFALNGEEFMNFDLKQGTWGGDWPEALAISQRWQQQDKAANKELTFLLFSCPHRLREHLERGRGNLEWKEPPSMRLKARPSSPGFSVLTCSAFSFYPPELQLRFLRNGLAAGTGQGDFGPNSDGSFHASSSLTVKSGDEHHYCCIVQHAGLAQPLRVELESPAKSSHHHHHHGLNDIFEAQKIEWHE
Chain of non-covalent complex of the soluble extracellular domain of human neonatal Fc receptor (FcRn) with C-terminal His-Avi Tag and human beta-2-microglobulin, biotinylated (human) (b2m, as listed by the source limits assumed, chain 2 of 2): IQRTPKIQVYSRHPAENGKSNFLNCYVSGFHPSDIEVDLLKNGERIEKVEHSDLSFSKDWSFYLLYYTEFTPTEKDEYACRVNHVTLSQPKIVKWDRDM

Substance: Fc part of anti-Abeta antibody (YTE mutant)
- retention time: 52 min
